Results on two substances are retold here after publication PMC2747663.

The target in test [1] is full-length ERBB3 (pIND/TRE-based), recombinant and overexpressed in CHO cells (human) (UniProt P21860). The test can be described thus: cross-linking.
The target in test [2] is soluble extracellular domains (ECD) of ERBB3, V5 and His6 epitope-tagged (human) (UniProt P21860). Description: cross-linking.

Consider “full-length ERBB3 (pIND/TRE-based), recombinant and overexpressed in CHO cells (from UniProt P21860 20-1342) (receptor)”, for which the stoichiometry N in test [1] is 2.
As for “soluble extracellular domains (ECD) of ERBB3, V5 and His6 epitope-tagged (from UniProt P21860 20-643) (domain or fragment)”, the stoichiometry N in test [2] was determined as 2.

One may read the stoichiometry N as a count of units in the complex or per binding partner.
